Experimental findings from PMC517823, “Mechanism of Association and Reciprocal Activation of Two GTPases” (PLoS Biology, 2004) are described below.

A word on the koff: it is a measure of how fast the partners let go of each other. A lower koff goes with a long-lived complex. Broadly, the kon is the second-order rate constant of association. The low end stands for slow association, the high end for fast association. As usually defined, the Ki is a dissociation constant, usually derived from enzyme kinetics or from competition with a known ligand. High values mean lower affinity, low ones higher affinity.

Assay [1] deals with T1, Ffh (UniProt P0AGD7 1-453).
T1 construct: Ffh, the GTPase of the bacterial signal recognition particle; The methods of the fluorescence experiment name 'SRP' (2 uM), not Ffh alone; also called SRP GTPase; wild-type Ffh
T1 sequence (looked up): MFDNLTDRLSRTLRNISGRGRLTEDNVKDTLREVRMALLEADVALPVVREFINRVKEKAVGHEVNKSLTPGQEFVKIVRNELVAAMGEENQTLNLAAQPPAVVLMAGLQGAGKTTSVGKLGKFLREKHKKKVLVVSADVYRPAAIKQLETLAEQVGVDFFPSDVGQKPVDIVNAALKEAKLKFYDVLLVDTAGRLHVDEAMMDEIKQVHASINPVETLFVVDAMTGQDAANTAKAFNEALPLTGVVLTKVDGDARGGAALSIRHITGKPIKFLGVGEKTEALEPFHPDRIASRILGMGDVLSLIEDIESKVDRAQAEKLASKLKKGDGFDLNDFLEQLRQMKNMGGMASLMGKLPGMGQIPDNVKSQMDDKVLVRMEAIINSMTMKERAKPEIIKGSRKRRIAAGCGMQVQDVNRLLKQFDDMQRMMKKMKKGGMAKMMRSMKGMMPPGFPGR
Description: other fluorescence titration; tryptophan fluorescence of FtsY, time course at 335 nm; 1 uM mutant or wild-type FtsY, 2 uM SRP, 100 uM GppNHp, complex formation started by addition of Mg2+. The note with it: both partners purified.

The target in assay [2] is T1, Ffh. In words: GTPase inhibition (competition) assay; mutant FtsY varied as inhibitor of the GTPase reaction of Ffh with subsaturating wild-type FtsY; under these conditions Ki equals Kd of the Ffh-FtsY(mt) complex; fit to equation 3. The note with it: both partners purified.

B1: wild-type FtsY(47-497) (domain or fragment, Escherichia coli, UniProt P10121 47-497, looked up)
chain: ASEQAVEEQPQAHTEAEAETFAADVVEVTEQVAESEKAQPEAEVVAQPEPVVEETPEPVAIEREELPLPEDVNAEAVSPEEWQAEAETVEIVEAAEEEAAKEEITDEELETALAAEAAEEAVMVVPPAEEEQPVEEIAQEQEKPTKEGFFARLKRSLLKTKENLGSGFISLFRGKKIDDDLFEELEEQLLIADVGVETTRKIITNLTEGASRKQLRDAEALYGLLKEEMGEILAKVDEPLNVEGKAPFVILMVGVNGVGKTTTIGKLARQFEQQGKSVMLAAGDTFRAAAVEQLQVWGQRNNIPVIAQHTGADSASVIFDAIQAAKARNIDVLIADTAGRLQNKSHLMEELKKIVRVMKKLDVEAPHEVMLTIDASTGQNAVSQAKLFHEAVGLTGITLTKLDGTAKGGVIFSVADQFGIPIRYIGVGERIEDLRPFKADDFIEALFARED
notes: FtsY, SRP receptor, Escherichia coli, residues 47-497; also called SRP receptor; SR; source: expressed and purified as in Powers and Walter 1997; Peluso et al. 2001
Take B1: in assay [1], the off-rate (koff) is 0.0036 s⁻¹ and the kon came out at 63600 M⁻¹ s⁻¹.

B2: FtsY A335(140)W (domain or fragment, Escherichia coli, UniProt P10121 47-497, looked up)
chain: ASEQAVEEQPQAHTEAEAETFAADVVEVTEQVAESEKAQPEAEVVAQPEPVVEETPEPVAIEREELPLPEDVNAEAVSPEEWQAEAETVEIVEAAEEEAAKEEITDEELETALAAEAAEEAVMVVPPAEEEQPVEEIAQEQEKPTKEGFFARLKRSLLKTKENLGSGFISLFRGKKIDDDLFEELEEQLLIADVGVETTRKIITNLTEGASRKQLRDAEALYGLLKEEMGEILAKVDEPLNVEGKAPFVILMVGVNGVGKTTTIGKLARQFEQQGKSVMLAAGDTFRAWAVEQLQVWGQRNNIPVIAQHTGADSASVIFDAIQAAKARNIDVLIADTAGRLQNKSHLMEELKKIVRVMKKLDVEAPHEVMLTIDASTGQNAVSQAKLFHEAVGLTGITLTKLDGTAKGGVIFSVADQFGIPIRYIGVGERIEDLRPFKADDFIEALFARED
notes: FtsY, Escherichia coli, residues 47-497, with A335W; number in parentheses is the T. aquaticus number; also called mutant FtsY A335(140)W; Class II mutant; source: expressed and purified as wild-type FtsY (Powers and Walter 1997; Peluso et al. 2001)
Consider B2, for which, in assay [1], the off-rate (koff) was 0.0042 s⁻¹ and the on-rate (kon) amounted to 63400 M⁻¹ s⁻¹. Besides, the affinity in assay [2] corresponds to a Ki of 16 nM.
